In the DeepSol protein solubility set:

Test: soluble on expression in E. coli; label from the status in PepcDB or PDB records

Sequence | soluble on expression in E. coli
MSLNDSILEPKHRGNVREIAAIDLGSNSFHMIVARIVNGSIQVLSRLKQKVKLAEGLDENAVLNQEAITRGVNCLALFAERLQGFPMENVNVVGTYTLRRAVNNDEFLRQAAKVFPYPINIISGQTEAKTIYAGVCHTQPEKGRKLVIDIGGGSTEMIIGDDFTPLMAESRHMGCVSFATQFFTDGIISPENFQRARQSAVNKIEDLGLEYRKLGWQSVLGSSGTIKTVAQVIATNLDPNGTITAERLNALIEQTLQAKHFTELNINGLNQDRVDVFVPGLAILSAVFDVFHIQQMRYSDGALREGVIYSLEKNFQVADIRASTAEGHHHHHH | soluble
MIDVKSIILIVLDGLGDRPGEILGYRTPLQAAYHPNMNRMASLGMTGLMHPISPGIRSGSDTSHMSLLGYDPRVYYQGRGPFEALGLHMDMKPGDLAFRANFATNRDGKIIDRRAGRINAGNDQLASAISIDIGNYKFRVKSGVEHRAALVVSGPNLSDKISDSDPHSEGKPPEPIRPLDPSADSTAKIMNEYLKRIREILRDHPVNVEREKNGQIPGNELLIRSAGKVPDIPSFQEKNGITGACVVGSPWLKGLCRLLGMAVIDVPGAAGTINSNYTGKIKTAIDASKRYDFVLVNIKATDVAGHDGDYELKRRVIEDIDIAMEPLLGQSDRIVVAITGDHSTPCSVKDHSGDPVPIVFYTDGIYSDDVKLFDEVSAMKGALRITTQDVLNILMEMAGRAEKFGS | not soluble
MSVIAITGSASGIGAALKELLARAGHTVIGIDRGQADIEADLSTPGGRETAVAAVLDRCGGVLDGLVCCAGVGVTAANSGLVVAVNYFGVSALLDGLAEALSRGQQPAAVIVGSIAATQPGAAELPMVEAMLAGDEARAIELAEQQGQTHLAYAGSKYAVTCLARRNVVDWAGRGVRLNVVAPGAVETPLLQASKADPRYGESTRRFVAPLGRGSEPREVAEAIAFLLGPQASFIHGSVLFVDGGMDALMRAKTF | soluble
MAHHHHHHMLRMKLVTYFEGFFFMATANDLPAAFRGSNCLQVQVNSKSGSKRVIRLVFIRHGQSVWNSLFNSFDATWPVRAVKAMVNEAVYFFTNPFDSVIVDSPLSEKGRSEAQELARFVRSAKGQVCFDASCSLIVCSNLRRAMETALVGMQPRIVSTGERIVVDSSLQEGSRNIDAQSLSTEPGKIVPCKMGELATPQLLGTAFDPHLNGGNRTAKRNVYDRMDEFVQHLFGGVKSNPYVPASGAESGNSALKEVIVVGHSGYFRCFFKRFLPSSSRHVAKTKKLKNCAVVSFDLVRNESTGEVYIEESTVSVLYKGF | not soluble
MTQLNFEENLLTKVAWYYYKDQLTQQEIASLLHISRNKVVRLLDKARSEGIVTFHVKGTGLHCLSIERDLMKKFHLKDAFIIPTPVNNYHASLGKAAAQYLETHLQQGDLLGIGWGETISKMLENIHFESSINLSIVTLTGGVNHYLPRKQNYLHYMQGELHIIPTPFLASTTEMAQSILSEPSVKDMLQVASLAHTAVVGIGGLSQDATIVKEEKLTLREMTYIRSQNGAGDILGQFYNTNGDLLELSHHNRLIGTPLSILRNMKHVVGVAGGTEKIDAICGALKGKFIHSLITDEETALSLLRKDGDC | not soluble
MSLAPALKAEILAQALPYIRKFHGKTIVIKYGGNAMTEEKLKHGFARDVILLKLVGMNPVVVHGGGPQIDDALKKVGKTGTFIQGMRVTDEETMEVVEWVLGGEVQQDIVMLINQYGGQAVGLTGKDGGLIRAKKLKMPDREQPGQFIDIGFVGDIETINPAVVRALQDDAFIPVISPIGFSDDGQAYNINADVVAGKMAEILKAEKLVMMTNIPGVMDKQGNLLTDLSAREIDELFADGTISGGMLPKISSALDAAKSGVNSVHIIDGRIEHSLLLEILTEQAFGTMIRSHEGHHHHHH | not soluble
MSLNSTLHIPKAEIHVHLEATITPSLCRKFAERNKVKLSEDIFGSEYAYQWEDFYDFIKRYDIVTGVIYTPEDYYELTYEYLKECASYNVLYVEAMVSSTHAKAKGMTYHSFLDSVHQASQDAERDFGIVSRYLMNGIRHLGADSVQETAKEVLNNPHPALVGFGLAGDELNFPPNLFTKTFDMLKQESYPITVHAGEWDGPENIRNAIHLLHPTRLGHGVRSIEDLDLVKEIVEKDIVLETCPTSNIATKIYENYESHPVKKLHDLGVRVTVNSDDPPFFNATIQGEYDAMAGIGFSAQELLSMTRNAIESSFLPEDKKTEILTKLNEGHHHHHH | soluble
MSQSASQDLSDFLGDDRFATVMADPPWRFTNRTGKVAPEHKRLARYPTMTLEDICALPVADYLQDRAHCYLWVPNALLPEGLQVLSAWGFEYKSNIVWHKVRKDGGSDGRGVGFYFRNVTELLLFGTKGKNARTLAPGRRQVNMMQTRKREHSRKPDEQYELIESCSWGPYLEMFGRGVRDGWTVWGNQADADYKPSWKTYSYNSGVAAELEHHHHHH | soluble
MITVSIAGGSQPEILQLVKKALKEAEQPLQFIVFDTNENLDTENLWKYVHCSDEAAVAQEAVSLVATGQAQILLKGIIQTHTLLKEMLKSEHQLKNKPILSHVAMVELPAGKTFLLTDCAMNIAPTQATLIEIVENAKEVAQKLGLHHPKIALLSAAENFNPKMPSSVLAKEVTAHFNDQQEATVFGPLSLDLATSEEAVAHKRYSGPIMGDADILVVPTIDVGNCLYKSLTLFGHAKVGGTIVGTKVPVVLTSRSDSTESKFHSLRFAMRQVHHHHHH | soluble
MKYIVAVNASPRSGWNTSQLVEAAAKGAKEAGATVDIIDLYKLEPFQGCISCFGCKLPRTFGRCVSKDGLSEVLDKIRKADGLILGSPNYLGNLTAGFRALYERLIFQSLTYNKERPNCNEHMIPVLLITTSNCDESIYDKIGYTSMLEGYKQMLERFVGPLEHHHHHH | not soluble
GAMSYSLYGTTLEQQYNKPLSDLLIRCINCQKPLSPEEKQRHLDKKQRFHNIRGRWTGRCMSCSRSSRTRRETQL | soluble
HHHHHHDEKRRPKRREIPLKVLVKAVLFACMLMRKTMASRVRVTILFATETGKSEALAWDLGALFSCAFNPKVVCMDKYRLSCLEEERLLLVVTSTFGNGDCPGNGEKLKKSLFMLKELNNKFRYAVFGLGSSMYPRFCAFAHDIDQKLSHLGASQLTPMGEGDELSGQEDAFRSWAVQTFKAACETFDVRGKQHIQIPKLYTSNVTWDPHHYRLVQDS | soluble
MAHHHHHHMSNDPKPTKPDPRVANNDVASDDGSDGKGDVAAPPAFLPTAGRVEVHPLVLLSLVDHYARMNTSAVQKKRVAGLLLGRYVRDSTGMQTLDINNSFAVPFDEDPQDAGVWFFDTNYAQEMFAMHKRVLPKVKVVGWYSSGPTIQPNDMLLHLLVADRFCLNPVYCVVNTDPNNKGVPVRAYTTVQGREGTRSLEFRNIPTHLGAEEAEEIGIEHLLRDLTDSTITTLSTQVQERELSLVHLCKVLQQIEEYLKDVGNAVMPISEDVLEVLQELISLQPEIYARRSSTEMIRHTNDEAIATFLAAIARCIGALHGVIMNRRKLARELQEIKDRRARAAETRLENEKMKIEEAAKEKDTNQA | not soluble
MAHHHHHHMSLAGQFTTFCRTHEQPMNEESCAVFLMAIEVAPSTRQQYARMLRSMLEMNRTPLDMVILGLQKIASRSETKQTRPSTKERGGRMYPQPDRLEGTCCLTTCVDNGELLVRGFGLDFQQFHTGVGRGLSFGLARGAEDGEGGSIPRLAVREDTRAGRLRQYKAMQDTSRKRKAYEAYDCTGDTISGSLGCHGAFHKTGSVEARCSNRGDMRFGPARGLAVGEARRPVRPSPEYCSIFGEIHHNADPGVVIDRIDVKGETAEGQELWLRAEERFFHDFNHNHAATITRRATRTRPTTPQNEHAIPLQQVNVPVLNLEWIQIRLNPATLERLMQVWGLVGRSPFPLSSSGKAREGSRSIPTADARLLNAAGIIEDASSTITGGWIIPFFGCGGENHRFTTTMDRVATRQEQRRAL | not soluble
MGSDKIHHHHHHMKKQPLAYRMRPSNIDEVIGQQHLVGEGKIIRRMVDAGQLSSMILYGPPGVGKTSIAQAIAGSTDTHYKLLNAVVNNKKDMEIVVEEAKMSGQLILILDEVHRLDKGKQDFLLPHLEKGLLILIGATTANPFHSINPAIRSRCQIFELTPLTTDEIKVALTRALTDKTHGLGEEPVVISDEALAHFAFACGGDVRSALNGLELAVRSTQPNVKGEKEITLSVAEECIQRKSFHHDKDGDAHYDVLSAFQKSIRGSDVNAALHYLARLIEAGDLVSIGRRLLVIAYEDIGLANPQAGPRTLAAIEAAERLGFPEGRIPLANAVVELCLSPKSNSAYVALDAAIADIRKGHVGSVPAHLKDAHYKGAEQLGRGIGYKYPHDYERGWVKQQYLPDSLKSRAYYEPKRTGKFEDALADVYEKLRKSTFSKES | not soluble
MAEKLNFEELNSMQRYSQFAVFRAIPGALGSDRAEIVAQAQSFFDGLETAGKVEVRGIYDLAGCRAEADFMIWWIAEEFEEIQAAFARFRRETVLGQVSEVAWLGNSLHRPAEFNRSHLPSFIMGEIPGDWITVYPFVRSYDWYIMDPQKRRKILAEHGQAARDFPDVRANTVPAFALGDYEWMLAFEAPRLDRIVDLMHKMRYTEARLHVREETPFFTGRRVSEVSELVNVLP | not soluble
MYKQLEKLITLTNNDLNLVNRRFGQRTDITSEQLELLRILFNYDRLSQYDLTMKISREQSIVSRWIKKLVLKGYITSQQSSEDLRCKELILTDQARTLISQINNARCELIEARCQCLSEVELDNLNQLLDKLNQRRISL | not soluble
MLVFIDDGSTNIKLQWQESDGTIKQHISPNSFKREWAVSFGDKKVFNYTLNGEQYSFDPISPDAVVTTNIAWQYSDVNVVAVHHALLTSGLPVSEVDIVCTLPLTEYYDRNNQPNTENIERKKANFRKKITLNGGDTFTIKDVKVMPESIPAGYEVLQELDELDSLLIIDLGGTTLDISQVMGKLSGISKIYGDSSLGVSLVTSAVKDALSLARTKGSSYLADDIIIHRKDNNYLKQRINDENKISIVTEAMNEALRKLEQRVLNTLNEFSGYTHVMVIGGGAELICDAVKKHTQIRDERFFKTNNSQYDLVNGMYLIGN | soluble
MGSDKIHHHHHHMTATVRQMWRHPIKGIGAEPLTEVRLETGGPMPLDRAWAVLTGTSEDTGAWQPCRNFARGCFGPELMAITAETQGNQITLRHPKQGEITLDPATDGARLLEWLLPLYPAERPQPHTLIKAPAGGMADADFSAVAILSLTSLKALGDALGQELDPRRFRGNLWIDGTAPFEEFDWVGRELKIGTARLEVVDRITRCRATETNPETGARDANTLKALREHWGHTDFGIRARVLSDGDIALSDSLEVL | not soluble
MGSDKIHHHHHHMTSLKQQLLDVKGGRNFRELGGYQTVSGKKIKMHKLIRSGHLADLLKEDQEYLRRYGLKYDIDLRTSFERNKQPDRKISGVEYFADPVFDEDLTNSTMSISDMARESQDPGWGYQRMLWAYKNMATGKNANKAYQHLFEVLLANEKDSESVLFHCTAGKDRTGFGAILILTALGVPMKTIEKDYLFTNEVIKDFVSQLLAKEKAAGADDSLLATFRDLQTVQPAYFKYLLDVINRNYGSINAYLHQQIGLSNADLLDLRTIYLEK | not soluble
MLQPKRTKFRKVHKGRNRGIASGTEVSFGTYGLKAVGRCRLTARQIEAARRAMSRAVKRQGKIWIRVFPDKPITEKPLEVRMGKGKGNVEYWVALIQPGKVLYEMDGVSEEVARNAFALAAAKLPVKTTFVTKTVMLEHHHHHH | not soluble
MGSDKIHHHHHHMNKETQAMMLVPQGSIEGYIHAAYDYPMLTAEEEKELAERLYYHQDLDAAKTLILSHLRFVIHVARGYSGYGLPQADLIQEGNIGLMKAVKRFNPEVGVRLVSFAVHWIKAEIHEYVLRNWRIVKVATTKAQRKLFFNLRKTKQRLGWFSDKEVDMVANELGVSKEDVLEMESRMTGSDVGFDLPVDDDESYAPALYLEDKSSNFAAELENENFETQAADQVANALAELDERSQDIIKSRWLDDEKATLHDLAAKYNISAERVRQLETNALKKLKSAVSF | not soluble
KRAGTVCSNCQTSTTTLWRRSPMGDPVCNACGLYYKLHQVNRPLTMRKDGIQTRNRKVSSKGKKRR | soluble
